Data published in article PMC10154539 (Cell Reports, 2023).
Numbering of substitutions follows the chain as printed.

B1: XG005a (antibody, V domains shown)
VH: QITLKESGPTLVKPTQTLTLTCTFSGFSLSTSGVGVGWIRQPPGKALEWLALIYWDNDKRYSPSLKSRLTITMDTSKNQVVLTMTNMDPVDTATYYCARLPSTDTIFDYWGQGALVTVSS
VL: QSALTQPASVSGSPGQSITVSCTGTSSDVGDYNYVSWYQQHPGKAPKLMIYDVSKRPSGVSNRFSGSKSGKTASLTISGLQAEDEADYYCSSYTSTSVVFGGGTKLTVL
B2: XG005c (antibody, V domains shown)
VH: B1 VH with N57D, M73K, L82V, S102A, Y109S, A114T
VL: B1 VL with V20I, D31A, K71Y, A82P, Y89F, S95T
B3: XG005 (antibody, V domains shown)
VH: QVTLRESGPTLVKPKQTLTLTCTFSGFSLSTPGGGVGWIRQPPGKALEWLALIYWDDDKRYSPSLKSSLTITKDTSKNQVVLTMTNMDPVDTATYYCARLTAADTIFDCWGQGTLVTVSS
VL: B1 VL with Q16L, V20I, G24A, D31A, K44Q, G70A, K71N, S95T

How the values were obtained:
[1] = target: T1, S-ECD protein of SARS-CoV-2 Omicron (B.1.1.529) (SARS-CoV-2 B.1.1.529 (Omicron), strain); assay: ELISA
[2] = target: T1, S-ECD protein of SARS-CoV-2 Omicron …; assay: cell-based or functional assay
[3] = target: SARS-CoV-2 Spike protein (ECD, His & FLAG tag), Wuhan-Hu-1 (wild-type) (SARS-CoV-2 Wuhan-Hu-1, UniProt P0DTC2); assay: ELISA

Row | Binder | ELISA AUC [1] | IC50 of neutralization of Omicron pseudovirus, Huh-7 cells, luciferase [2] [µg/mL] | binding result [3]
1 | B1 | ~26 | > 10 | 
2 | B2 | ~30 | 2 | 
3 | B3 | ~30 |  | binds
